Key:
[1] = biological target: biotinylated Ub–CycB^N (AviTag–Ub–Cyclin B (1–88)–Cys–6xHis) (UniProt P0CG48); experiment: METRIS (mechanically transduced immunosorbent assay); as a7, surface of Ub–CycB^N, UbV^CDH1 added as competitor (concentration not stated)
[2] = biological target: biotinylated Ub (biotin maleimide on an N-terminal cysteine) (UniProt P0CG48); experiment: METRIS (mechanically transduced immunosorbent assay); as a7, surface of Ub, UbV^RING and UbV^CDH1 both added as competitors (concentrations not given)
[3] = biological target: biotinylated Ub (biotin maleimide on an N-terminal cysteine) (UniProt P0CG48); experiment: METRIS (mechanically transduced immunosorbent assay); biotinylated APC/C (with or without CDH1) on streptavidin ferromagnetic beads rolling on streptavidin wells coated with biotinylated CycB^N, Ub–CycB^N or Ub; rotating field 1 Hz; rolling parameter (RP); relative measure; no UbV added
[4] = biological target: biotinylated Ub–CycB^N (AviTag–Ub–Cyclin B (1–88)–Cys–6xHis) (UniProt P0CG48); experiment: as above
[5] = biological target: biotin–CycB^N* (AviTag–Cyclin B (1–88)–Cys–6xHis, biotinylated, Alexa488-labeled) (UniProt P14635); experiment: as above
biotin–CycB^N* (AviTag–Cyclin B (1–88)–Cys–6xHis, biotinylated, Alexa488-labeled), sequence (P14635 other isoform, or with tags, fused parts or gaps): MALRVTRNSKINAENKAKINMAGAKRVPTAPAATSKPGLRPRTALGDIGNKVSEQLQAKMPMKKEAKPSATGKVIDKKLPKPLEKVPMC

rolling parameter (RP) with UbV^CDH1 added [1]: 0.19
rolling parameter (RP) with UbV^RING and UbV^CDH1 added [2]: 0.13
rolling parameter (RP) [3]: 0.17
rolling parameter (RP) [4]: 0.21
rolling parameter (RP) [5]: 0.15
Substance: biotinylated APC/C^CDH1 (biotinylated APC/C with HaloTag, AviTag and Twin-Strep(II)-tag on APC4, incubated with CDH1 on the beads) (from UniProt Q9UJX6 1-822; P30260 1-824; Q9UJX5 1-808; Q9UJX3 1-565; Q9UJX2 1-595; Q9UM13 4-185; Q9NYG5 1-84; Q9UM11 1-496) (complex)

Reference: publication PMC10643132
